The values below come from doi:10.1101/2025.05.23.655772, “A Proteolytic Switch: USP5 controls SDE2 function via UBL-directed cleavage” (bioRxiv, 2025).

The chains are these.
B1: SDE2 N-terminal ubiquitin-like domain, SDE2UBL(1-77) (domain or fragment, human, UniProt Q6IQ49 1-77, looked up)
chain: MAEAAALVWIRGPGFGCKAVRCASGRCTVRDFIHRHCQDQNVPVENFFVKCNGALINTSDTVQHGAVYSLEPRLCGG
notes: Silencing Defective 2 (SDE2), human, residues 1-77 (ubiquitin-like domain ending in the Gly-Gly motif); source: E. coli BL21 (DE3), purified (Ni-NTA, SUMO protease cleavage, SEC); not shown: His, N-terminal, cleaved; SUMO, N-terminal, cleaved
B2: HA-SDE2UBL-PA, activity-based probe derived from SDE2UBL (domain or fragment, human, UniProt Q6IQ49 1-76, looked up)
chain: MAEAAALVWIRGPGFGCKAVRCASGRCTVRDFIHRHCQDQNVPVENFFVKCNGALINTSDTVQHGAVYSLEPRLCG
modifications: Gly77 replaced with a propargyl electrophilic warhead (C-terminal propargylamine)
notes: Silencing Defective 2 (SDE2), human, residues 1-76 (SDE2UBL with Gly77 truncated); Forms a covalent adduct with the catalytic cysteine of reactive enzymes; also called HA-SDE2UBL-ABP; SDE2UBL-ABP; not shown: HA, N-terminal, kept
B3: ubiquitin-specific protease 5, wild type (enzyme, human, UniProt P45974 1-858, looked up)
chain: MAELSEEALLSVLPTIRVPKAGDRVHKDECAFSFDTPESEGGLYICMNTFLGFGKQYVERHFNKTGQRVYLHLRRTRRPKEEDPATGTGDPPRKKPTRLAIGVEGGFDLSEEKFELDEDVKIVILPDYLEIARDGLGGLPDIVRDRVTSAVEALLSADSASRKQEVQAWDGEVRQVSKHAFSLKQLDNPARIPPCGWKCSKCDMRENLWLNLTDGSILCGRRYFDGSGGNNHAVEHYRETGYPLAVKLGTITPDGADVYSYDEDDMVLDPSLAEHLSHFGIDMLKMQKTDKTMTELEIDMNQRIGEWELIQESGVPLKPLFGPGYTGIRNLGNSCYLNSVVQVLFSIPDFQRKYVDKLEKIFQNAPTDPTQDFSTQVAKLGHGLLSGEYSKPVPESGDGERVPEQKEVQDGIAPRMFKALIGKGHPEFSTNRQQDAQEFFLHLINMVERNCRSSENPNEVFRFLVEEKIKCLATEKVKYTQRVDYIMQLPVPMDAALNKEELLEYEEKKRQAEEEKMALPELVRAQVPFSSCLEAYGAPEQVDDFWSTALQAKSVAVKTTRFASFPDYLVIQIKKFTFGLDWVPKKLDVSIEMPEELDISQLRGTGLQPGEEELPDIAPPLVTPDEPKGSLGFYGNEDEDSFCSPHFSSPTSPMLDESVIIQLVEMGFPMDACRKAVYYTGNSGAEAAMNWVMSHMDDPDFANPLILPGSSGPGSTSAAADPPPEDCVTTIVSMGFSRDQALKALRATNNSLERAVDWIFSHIDDLDAEAAMDISEGRSAADSISESVPVGPKVRDGPGKYQLFAFISHMGTSTMCGHYVCHIKKEGRWVIYNDQKVCASEKPPKDLGYIYFYQRVAS
notes: ubiquitin-specific protease 5 (USP5), human; No removal of the His tag is described; also called USP5; USP5^WT; source: E. coli BL21 (DE3), purified (Ni-NTA, SEC)
B4: catalytically inactive USP5 C335A (enzyme, human, UniProt P45974 1-858, looked up)
chain: B3 chain with C335A
notes: ubiquitin-specific protease 5 (USP5), human, catalytic cysteine mutated; The His tag is used for detection in the TR-FRET assay; also called His-USP5^C335A; source: E. coli BL21 (DE3), purified (Ni-NTA, SEC)

Positions count from the first letter of the chain named. Numbers in names are those of the source.

What all share (details): both partners purified
Series [1] addresses B3. The experiment in a line: ITC; ITC200 at 298 K; 50 mM HEPES, 100 mM NaCl, 1 mM TCEP, pH 7.5; SDE2 construct or monoubiquitin titrated into USP5 (10-12 µM); duplicate. Background: ITC needs no label: the signal is the heat of the interaction.
The target in series [2] is B4. The description is as above.
Series [3] deals with B3. The experiment in a line: thermal shift assay; USP5^WT incubated with ABP for 1 h at 37 °C in PBS, 1 mM DTT, then SYPRO orange, 10-95 °C; Tm of the USP5-ABP covalent complex; triplicate.
Another series addresses T1, monoubiquitin (UniProt P0CG48 1-76).
T1 construct: ubiquitin, the mature monomer
The series can be described thus: ITC; ITC200 at 298 K; 50 mM HEPES, 100 mM NaCl, 1 mM TCEP, pH 7.5; SDE2 construct or monoubiquitin titrated into USP5 (10-12 µM); duplicate.

As to B1, the dissociation constant Kd stood at 26.6 ± 5 µM in series [1] and 1.67 µM in series [2]. Regarding B2, the “Tm of the covalent complex” value in series [3] is 56.4 ± 0.2 °C.

As for B3, the binding result in the series with monoubiquitin was “binds”. On the same count and under the same terms, to B4 belongs “binds”.

The term Kd denotes the constant that tells how readily two partners part at equilibrium. Low readings indicate tighter binding, high ones weaker binding.
